Patent publication US20180030151A1 (MOGAM INSTITUTE FOR BIOMEDICAL RESEARCH, published 2018)
Like-named read-outs stand apart in the source and are kept apart here.

What was measured:
[1] = target: T1, recombinant human TFPI (tissue factor pathway inhibitor) (human, UniProt P10646 29-304); assay: cell-based or functional assay
[2] = target: T1, recombinant human TFPI (tissue factor …); assay: cell-based or functional assay; remark: listed apart in the source
[3] = target: T1, recombinant human TFPI (tissue factor …); assay: cell-based or functional assay; remark: listed apart in the source
[4] = target: T1, recombinant human TFPI (tissue factor …); assay: cell-based or functional assay; remark: listed apart in the source
[5] = target: T1, recombinant human TFPI (tissue factor …); assay: SPR, Biacore T-200; IgG captured on protein A (CM5), TFPI as analyte
Experimental: Dissociation of the TFPI associated with the antibody was induced by running 10 mM glycine-HCl (pH 1.5) at a flow rate for 30 seconds. The affinities in terms of kinetic rate constants (Kₒₙ and Koff) and equilibrium dissociation constant (KD) were evaluated using Biacore T-200 evaluation software, and the results are shown in Table 24 below.

[6] = target: T1, recombinant human TFPI (tissue factor …); assay: cell-based or functional assay; remark: listed apart in the source
[7] = target: T1, recombinant human TFPI (tissue factor …); assay: cell-based or functional assay; remark: listed apart in the source
[8] = target: T1, recombinant human TFPI (tissue factor …); assay: cell-based or functional assay; remark: listed apart in the source

| effect of inhibiting TFPI, FXa activity assay, Ab 10 nM [1] [%] | effect of inhibiting TFPI, FXa activity assay, Ab 20 nM [1] [%] | Kd [5] [pM] | A405, TF/FVIIa/FX complex assay, Ab 1.56 nM [6] | A405, TF/FVIIa/FX complex assay, Ab 3.13 nM [6] | A405, TF/FVIIa/FX complex assay, Ab 6.25 nM [6] | A405, TF/FVIIa/FX complex assay, Ab 12.5 nM [6] | A405, TF/FVIIa/FX complex assay, Ab 25 nM [6] | A405, TF/FVIIa/FX complex assay, Ab 50 nM [6] | A405, TF/FVIIa/FX complex assay, Ab 100 nM [6] | % of Normalized, TF/FVIIa/FX complex assay, Ab 1.56 nM [7] [%] | % of Normalized, TF/FVIIa/FX complex assay, Ab 3.13 nM [7] [%] | % of Normalized, TF/FVIIa/FX complex assay, Ab 6.25 nM [7] [%] | % of Normalized, TF/FVIIa/FX complex assay, Ab 12.5 nM [7] [%] | % of Normalized, TF/FVIIa/FX complex assay, Ab 25 nM [7] [%] | % of Normalized, TF/FVIIa/FX complex assay, Ab 50 nM [7] [%] | % of Normalized, TF/FVIIa/FX complex assay, Ab 100 nM [7] [%] | FXa assay % of FXa alone, 2.5 nM Ab, 10 nM TFPI [8] [%] | FXa assay % of FXa alone, 5 nM Ab, 10 nM TFPI [8] [%] | FXa assay OD, 2.5 nM Ab, 10 nM TFPI [8] | Binder | also measured |
| --- | --- | --- | --- | --- | --- | --- | --- | --- | --- | --- | --- | --- | --- | --- | --- | --- | --- | --- | --- | --- | --- |
| ~83 | ~82 | 74 |  |  |  |  |  |  |  |  |  |  |  |  |  |  |  |  |  | clone 3241 (antibody, V domains shown, scFv on yeast at selection; human IgG4/kappa IgG as purified; also called No. 3241 antibody) VH: EVQLVESGGGLVKPGGSLRLSCAASGFTFSSYAMNWVRQAPGKGLEWVSTITTGGSYTYYADSVEGRFTISRDNAKNSLYLQMNSLRAEDTAVYYCARQDGNFLMDYWGQGTLVTVSS VL: DVVMTQTPLSLPVTLGQPASISCKSSQSLLDIDGKTYLNWLQQRPGQSPKRLIYLVSKLDSGVPDRFTGSGSGTDFTLKISRVEAEDVGVYYCWQGTHFPFTFGQGTKVEIKR | FXa assay % of FXa alone, 2.5 nM Ab, 10 nM TFPI [2]: 11.2%; FXa assay % of FXa alone, 5 nM Ab, 10 nM TFPI [2]: 50.9%; FXa assay OD, 2.5 nM Ab, 10 nM TFPI [2]: 0.091; FXa assay OD, 5 nM Ab, 10 nM TFPI [2]: 0.413; FXa assay OD, 10 nM Ab, 10 nM TFPI [2]: 0.677; FXa assay OD, 20 nM Ab, 10 nM TFPI [2]: 0.665; A405, TF/FVIIa/FX complex assay, Ab 1.56 nM [3]: 0.157; A405, TF/FVIIa/FX complex assay, Ab 3.13 nM [3]: 0.171; A405, TF/FVIIa/FX complex assay, Ab 6.25 nM [3]: 0.197; A405, TF/FVIIa/FX complex assay, Ab 12.5 nM [3]: 0.305; A405, TF/FVIIa/FX complex assay, Ab 25 nM [3]: 0.911; A405, TF/FVIIa/FX complex assay, Ab 50 nM [3]: 0.935; A405, TF/FVIIa/FX complex assay, Ab 100 nM [3]: 0.937; % of Normalized, TF/FVIIa/FX complex assay, Ab 1.56 nM [4]: 17.2%; % of Normalized, TF/FVIIa/FX complex assay, Ab 3.13 nM [4]: 18.7%; % of Normalized, TF/FVIIa/FX complex assay, Ab 6.25 nM [4]: 21.5%; % of Normalized, TF/FVIIa/FX complex assay, Ab 12.5 nM [4]: 33.3%; % of Normalized, TF/FVIIa/FX complex assay, Ab 25 nM [4]: 99.6%; % of Normalized, TF/FVIIa/FX complex assay, Ab 50 nM [4]: 102%; % of Normalized, TF/FVIIa/FX complex assay, Ab 100 nM [4]: 102% |
| ~82 | ~82 | 8.19 | 0.041 | 0.048 | 0.067 | 0.097 | 0.489 | 0.803 | 0.847 | 4.8 | 5.6 | 7.8 | 11.4 | 57.7 | 94.6 | 99.9 | 7.4 | 38.8 | 0.0615 | clone 12 (antibody, V domains shown, human IgG4/kappa IgG as purified; also called No. 12 antibody) VH: EVQLVESGGGLVKPGGSLRLSCAASGFTFSSYAMNWVRQAPGKGLEWVGTITTGGSHTYYADSVEGRFTISRDNAKNSLYLQMNSLRAEDTAVYYCARQDGHFLMDYWGQGTLVTVSS VL: DVVMTQTPLSLPVTLGQPASISCKSSPSLLDIDGKTYLNWLQQRPGQSPKRLIYLVSKLDSGVPDRFTGSGSGTDFTLKISRVEAEDVGVYYCWQGTHFPFTFGQGTKVEIKR | FXa assay OD, 5 nM Ab, 10 nM TFPI [8]: 0.321; FXa assay OD, 10 nM Ab, 10 nM TFPI [8]: 0.68; FXa assay OD, 20 nM Ab, 10 nM TFPI [8]: 0.678 |
| ~82 | ~87 | 9.47 | 0.043 | 0.051 | 0.059 | 0.091 | 0.509 | 0.843 | 0.859 | 5.1 | 6 | 6.9 | 10.7 | 60 | 99.4 | 101 | 7.3 | 46.2 | 0.0605 | clone 1202 (antibody, V domains shown, scFv on yeast at selection; human IgG4/kappa IgG as purified; also called No. 1202 antibody) VH: EVQLVESGGGLVKPGGSLRLSCAASGFTFSSYAMNWVRQAPGKGLEWVGTITTGGSYTYYADSVDGRFTISRDNAKNSLYLKMNSLRAEDTAVYYCARQDGNFLMDYWGQGTLVTVSS VL: DVVMTQTPLSLPVTLGQPASISCKSSQSLLDIDGKTYLNWLQQRPGQSPKRLIYLVSKLDSGVPDRFTGSGSGTDFTLKISRVEAEDVGVYYCWQGTHFPFTFGQGTKVEIKR | FXa assay OD, 5 nM Ab, 10 nM TFPI [8]: 0.382; FXa assay OD, 10 nM Ab, 10 nM TFPI [8]: 0.676; FXa assay OD, 20 nM Ab, 10 nM TFPI [8]: 0.72 |
